This note sets out measurements from patent US20220119518A1 (KUMHO HT, published 2022).

For assay [1], the target named is T1, CEACAM1 antigen (Sino Biological, Inc.) (UniProt P13688 35-428).
T1 construct: Bought antigen, coated on the ELISA plate; construct not described; also called CEACAM1 (CD66a) antigen; CD66a
T1 sequence (looked up): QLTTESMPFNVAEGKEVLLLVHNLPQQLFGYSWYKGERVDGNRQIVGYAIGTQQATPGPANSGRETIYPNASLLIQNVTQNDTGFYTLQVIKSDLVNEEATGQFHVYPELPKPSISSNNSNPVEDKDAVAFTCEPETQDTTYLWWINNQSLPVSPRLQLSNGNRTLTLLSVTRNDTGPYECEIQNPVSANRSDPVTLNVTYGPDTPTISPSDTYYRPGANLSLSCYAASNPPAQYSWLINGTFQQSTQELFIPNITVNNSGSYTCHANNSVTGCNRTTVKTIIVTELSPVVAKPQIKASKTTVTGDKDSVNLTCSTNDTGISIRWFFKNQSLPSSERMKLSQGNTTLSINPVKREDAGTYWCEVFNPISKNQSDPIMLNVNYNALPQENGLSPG
The assay can be described thus: ELISA, CEACAM1 coated 100 ng/well, antibody at 123.46 ng/ml. The method, then: (§1) Antigen CD66c (CEACAM6; Sino Biological, Inc.) and CEACAM1 antigen (Sino Biological, Inc.) were coated on a 96-well plate at a rate of 100 ng per well and then blocked. The primary antibody was diluted 3-fold from 10 ug/ml and bound at 37° C. for 1 hour. […] goat anti-Human Ig-HRP conjugate (Jackson ImmunoResearch) as a secondary antibody was diluted 1:10,000 and incubated at 37° C. for 30 minutes. The washing was carried out at three times between each step, and the TMB reaction was performed, stopped with 1N H₂SO₄ solution at the same amount of TMB solution (100 ul) and then OD value was measured at 450 nm.

The target in assay [2] is T1, CEACAM1 antigen (Sino Biological, Inc.). The assay can be described thus: ELISA, CEACAM1 coated 100 ng/well, antibody at 41.15 ng/ml. The method, then:
as §1

The target is the same in assay [3]. The assay is described as follows: ELISA, CEACAM1 coated 100 ng/well, antibody at 4.57 ng/ml. The protocol:
as §1

For assay [4] the target is unchanged. The assay can be described thus: ELISA, CEACAM1 coated 100 ng/well, antibody at 370.37 ng/ml. The method, then:
as §1
(In general: ELISA stands for enzyme-linked immunosorbent assay.)

In assay [5] the target is T2, Antigen CD66c (CEACAM6; Sino Biological, Inc.) (UniProt P40199 35-320).
T2 construct: Bought antigen, coated on the ELISA plate; construct not described; also called CECACAM6 (CD66c) antigen; CD66c antigen
T2 sequence (looked up): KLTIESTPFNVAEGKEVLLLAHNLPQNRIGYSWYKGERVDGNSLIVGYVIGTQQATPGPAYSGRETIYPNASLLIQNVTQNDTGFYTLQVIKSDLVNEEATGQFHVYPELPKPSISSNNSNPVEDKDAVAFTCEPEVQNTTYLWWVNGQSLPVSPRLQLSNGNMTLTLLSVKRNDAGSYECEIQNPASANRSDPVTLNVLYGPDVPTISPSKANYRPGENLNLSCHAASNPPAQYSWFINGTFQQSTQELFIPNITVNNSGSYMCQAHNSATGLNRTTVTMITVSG
The assay can be described thus: ELISA, CEACAM6 coated 100 ng/well, antibody at 123.46 ng/ml. The protocol:
as §1
(§2) As a result of the experiment, the binding affinities to CD66c antigen of the five kinds of recombinant humanized antibodies selected from among 96 kinds of recombinant humanized antibodies are shown in FIG. 4a, Table 12, FIG. 4b and Table 13. FIG. 4a and Table 12 show the binding capacity of the antibodies to CECACAM6 CD66c) antigen, and FIG. 4b and Table 13 are the results for the CEACAM1 (CD66a) antigen.

Assay [6] concerns the target T3, CD66c (Cluster of Differentiation 66c) on cells (UniProt P40199 35-320, limits assumed).
T3 construct: whole, on cells; also called CEACAM6; CEACAM 6
T3 sequence (looked up): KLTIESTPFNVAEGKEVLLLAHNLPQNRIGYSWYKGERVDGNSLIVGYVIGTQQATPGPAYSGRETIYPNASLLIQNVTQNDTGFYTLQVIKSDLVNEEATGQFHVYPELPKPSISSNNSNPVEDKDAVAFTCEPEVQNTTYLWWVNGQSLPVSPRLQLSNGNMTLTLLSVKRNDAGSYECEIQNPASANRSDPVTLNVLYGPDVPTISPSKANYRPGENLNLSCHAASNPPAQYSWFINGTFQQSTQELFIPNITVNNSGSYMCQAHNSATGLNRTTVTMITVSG
The assay can be described thus: flow cytometry on CD66c-positive A549 cells, FITC anti-human IgG. The protocol:
Each expressed 96 recombinant humanized antibody was poured and reacted in a test tube containing the same amount […] of CD66c-positive A549 non-small-cell lung cancer cell line at 4° C. for 30 minutes, washed with PBS, and treated with FITC-conjugated goat anti-Huma IgG (DiNona Inc, Korea) was added and incubated at 4° C. for 15 minutes. After washing with PBS, the cells were analyzed with a flow cytometer (Stratedigm, S1000EXi) and the results are shown below.
Among the 96 recombinant humanized antibody candidates, eight were firstly selected based on the degree of expression, the presence of aggregation, and the degree of cell binding (Table 9 and Table 10, FIGS. 3A to 3E).
In general terms: Flow cytometry measures light scatter and fluorescence of single cells or particles in a stream.

Assay [7] has as its target T2, Antigen CD66c (CEACAM6; Sino …). The assay is described as follows: ELISA, CEACAM6 coated 100 ng/well, antibody at 3333.33 ng/ml. The method, then:
as §1, §2

Assay [8] has the same target. The assay is described as follows: ELISA, CEACAM6 coated 100 ng/well, antibody at 41.15 ng/ml. The protocol:
as §1

B1: anti-CD66c chimeric antibody 8F5 (antibody, human IgG1, V domains shown)
VH: EVQLQQSGPELVKPGASMKISCKASGYSFTDYTMNWVKQSHGKNLEWIGLINPFHGGTVSNQRFKVKATLTVDVSSNTAYMELLSLTSDDSAVYYCVRGDPVRHYYALAYWGQGTSVTVSS
VL: DIQMTQSPASLSASVGETVTITCGASENVYGTLNWYQRKQGKSPQLLIYGATNLADGMSSRFSGSGSGRQYSLKISSLHPDDVATYYCQNVLSAPYTFGGGTKLEII
notes: also called chimeric 8F5; chi 8F5
As for B1, the “OD 450 nm” value in assay [1] was 0.95 OD 450 nm; in assay [2], 0.82 OD 450 nm; in assay [3] it was 0.28 OD 450 nm; in assay [4] it was 1.13 OD 450 nm; in assay [5], 2.83 OD 450 nm; in assay [7], 3.41 OD 450 nm. For the same molecule, the “OD 450 nm” value in assay [8] was found to be 2.02 OD 450 nm. The “% (% gated × mean), against the chimeric antibody” value (shortened to “% (% gated × mean)”) in assay [6] amounted to 100%. The “% gated” value in assay [6] came to 73%. In addition, the “Mean (fluorescence)” value in assay [6] was found to be 619.

B2: recombinant humanized anti-CD66c antibody Protein ID 3058 (Vk8 + VH11) (antibody, human IgG1, V domains shown)
VH: QVQLVQSGAEVKKPGASVKISCKASGYSFTDYTMHWVKQAPGQNLEWIGLINPFGGSTSYAQKFKGRVTMTRDTSTNTAYMELSRLRSDDTAVYYCVRGDPVRHYYALAYWGQGTLVTVSS
VL: DIQMTQSPSTLSASVGDRVTITCRASENVYGTLNWYQRKPGKAPKLLIYGATNLADGMPSRFSGSGSGTEYTLTISSLQPDDFATYYCQNVLSAPYTFGGGTKLEIK
notes: also called hu 3058; #86
Consider B2, for which the “OD 450 nm” value amounted to 0.07 OD 450 nm in assay [1]; 0.07 OD 450 nm in assay [2]; 0.05 OD 450 nm in assay [3]; 0.12 OD 450 nm in assay [4]; 2.22 OD 450 nm in assay [5]; 3.18 OD 450 nm in assay [7]. Besides, the “OD 450 nm” value in assay [8] was 1.38 OD 450 nm. Moreover, in assay [6], the “% (% gated × mean)” value came out at 103%. Moreover, the “% gated” value in assay [6] was 72%. Besides, the “Mean (fluorescence)” value in assay [6] worked out at 645.

B3: recombinant humanized anti-CD66c antibody Protein ID 3007 (Vk7 + VH6) (antibody, human IgG1, V domains shown)
VH: QVQLVQSGAEVKKPGASMKISCKASGYSFTDYTMNWVKQAPGQNLEWIGLINPFHGGTVSNQRFKVKATLTVDVSTNTAYMELSRLRSDDTAVYYCVRGDPVRHYYALAYWGQGTLVTVSS
VL: DIQMTQSPSTLSASVGDRVTITCGASENVYGTLNWYQRKPGKAPKLLIYGATNLADGVPSRFSGSGSGTEYTLTISSLQPDDFATYYCQNVLSAPYTFGGGTKLEIK
notes: also called hu 3007; #43
As for B3, the “OD 450 nm” value was determined as 0.82 OD 450 nm in assay [1]; 0.66 OD 450 nm in assay [2]; 0.27 OD 450 nm in assay [3]; 0.92 OD 450 nm in assay [4]; 2.9 OD 450 nm in assay [5]; 3.24 OD 450 nm in assay [7]. Besides, in assay [8], the “OD 450 nm” value came to 2.17 OD 450 nm. In addition, the “% (% gated × mean)” value in assay [6] came out at 88.8%. The “% gated” value in assay [6] came out at 71%. In assay [6], the “Mean (fluorescence)” value was found to be 565.

B4: recombinant humanized anti-CD66c antibody Protein ID 2938 (Vk5 + VH7) (antibody, human IgG1, V domains shown)
VH: QVQLVQSGAEVKKPGASMKISCKASGYSFTDYTMNWVRQAPGQGLEWIGLINPFHGGTVSNQRFKVKATLTVDVSTNTAYMELSRLRSDDTAVYYCVRGDPVRHYYALAYWGQGTLVTVSS
VL: DIQMTQSPSTLSASVGDRVTITCGASENVYGTLAWYQRKPGKAPKLLIYGATNLADGVPSRFSGSGSGREYTLTISSLQPDDFATYYCQNVLSAPYTFGGGTKLEIK
notes: also called hu 2938
With B4, the “OD 450 nm” value in assay [1] is 0.1 OD 450 nm; in assay [2], 0.07 OD 450 nm; in assay [3] it was 0.05 OD 450 nm; in assay [4], 0.14 OD 450 nm; in assay [5], 2.56 OD 450 nm; in assay [7], 3.27 OD 450 nm. Further, in assay [8], the “OD 450 nm” value was found to be 1.72 OD 450 nm. The “% (% gated × mean)” value in assay [6] is 96%. The “% gated” value in assay [6] was determined as 71%. In addition, in assay [6], the “Mean (fluorescence)” value was 611.

B5: recombinant humanized anti-CD66c antibody Protein ID 3043 (Vk8 + VH6) (antibody, V domains shown)
VH: QVQLVQSGAEVKKPGASMKISCKASGYSFTDYTMNWVKQAPGQNLEWIGLINPFHGGTVSNQRFKVKATLTVDVSTNTAYMELSRLRSDDTAVYYCVRGDPVRHYYALAYWGQGTLVTVSS
VL: DIQMTQSPSTLSASVGDRVTITCRASENVYGTLNWYQRKPGKAPKLLIYGATNLADGMPSRFSGSGSGTEYTLTISSLQPDDFATYYCQNVLSAPYTFGGGTKLEIK
notes: also called hu 3043; #71
With B5, the “OD 450 nm” value worked out at 0.7 OD 450 nm in assay [1]; 0.61 OD 450 nm in assay [2]; 0.27 OD 450 nm in assay [3]; 0.8 OD 450 nm in assay [4]; 2.29 OD 450 nm in assay [5]; 2.95 OD 450 nm in assay [7]. Further, the “OD 450 nm” value in assay [8] was determined as 1.73 OD 450 nm. Also, in assay [6], the “% (% gated × mean)” value worked out at 105%. Also, in assay [6], the “% gated” value worked out at 69%. Besides, the “Mean (fluorescence)” value in assay [6] was determined as 686.
